Reference: US20130230533A1 (Regeneron, published 2013)
Residue numbers refer to the chain shown, from its start. Numbers in names are those of the source.

B1: H2M1707N (antibody, mouse IgG2, V domains shown)
VH: EGQLLESGGGLAQPGGSLRLSCAASGITFGRYAMSWVRQAPGKGLEWVSLISGSGGSTYHADSVKGRFTISRDNSKNTLYLQMNSLRAEDTAVYYCAIYNNYNWFDPWGQGTLVTVSS
VL: EIVLTQSPGTLSLSPGERATLSCRASQSVSSNYLAWYQQKPGQAPRLLIYDASSRATDIPDRFSGSGSGTDFTLTISRLEPEDFAVYYCQQYGSSPRTFGQGTKVEIK
B2: H4H1707N (antibody, human IgG4, V domains shown)
VH: B1 VH
VL: B1 VL
notes: Human IgG4 Fc (prefix H4H)
B3: H3M1766N (antibody, V domains shown)
VH: EVQLVESGGGLAQPGGSLRLSCAASGFTFSSYEMNWVRQAPGKGLEWVSYITTSGSTIYYADSVKGRFTMSRDNAKKSLYLEMNSLRAEDTAVYYCAREECTNGVCYKDYQYYGMDVWGQGTTVTVSS
VL: DIQMTQSPSSVSASVGDRVTITCRASQNINTWLAWYQQKPGKVPKLLIYAASSLQSGVPSRFSGSGSGTDFTLTISSLQPEDFATYYCQQANSFPLTFGGGTKVEIK
notes: also called H2M1766N
B4: H4H1770P (antibody, human IgG4, V domains shown)
VH: QVQLVQSGAEVKKPGAAVKVSCKASGYTFTAYGISWVRQAPGQGLEWMGWISAYDGDTNNAQKFQGRVTMTTDTSSSTAYMELRSLGSDDTAVYYCARDRYSSSSGYFDYWGQGTLVTVSS
VL: B3 VL with N28D, N30S, T31S, Y36S, V43A, L46A, L96Y, G100Q, V104L
notes: Human IgG4 Fc (prefix H4H)
B5: H4H1771P (antibody, human IgG4, V domains shown)
VH: QVQLVQSGTEVKKPGASVKVSCKVSGYTLIDLSIHWVRQAPGEGLEWMGGFDPEESETIYAQKFQGRVTMTEDTSTDTAYMELSSLRSEDTAVYYCVTEPIFGILIHESWGQGTLVTVSS
VL: DIVMTQTPLSSPVTLGQPASISCRSSHSPVHSNGHTYLSWLQQRPGQPPRILIYKISRRFSGVPDRFSGSGAGTDFTLKISRVETEDVGIYYCMQASQFPWTFGQGTKVEIK
notes: Human IgG4 Fc (prefix H4H)
B6: H4H1772P (antibody, human IgG4, V domains shown)
VH: EVQLVESGGGLVQPGGSLRLSCAASGFTFSSYWMSWVRQAPGKGLEWVANIMRDGSEKYYVDSVKGRFTISRDNAKNSLYLQMNSLRGEDTAVYYCARERGFYTNYGNWFDPWGQGTLVTVSS
VL: DIVMTQSPLSLTVTPGESASISCRSSQSLLHSYGYNSLDWYLQKPGQSPQFLIYLVSNRASGVPDRFSGSGSGTDFTLKISRVEAEDVGVYYCMQVLQTPYTFGQGTKLEIK
notes: Human IgG4 Fc (prefix H4H)
B7: H4H1774P (antibody, human IgG4, V domains shown)
VH: QVQLVESGGGVVQPGRSLRLSCAASGFTFSNYGMHWVRQAPGKGLEWVAVIWYDESSKYYTDSVKGRFTISRDNSQNTLYLQMTSLRAEDTAVYYCARDRWTYSHYFEYWGQGTLVTVSS
VL: B3 VL with N28G, N30S, T31S, L33V, V43A, L96R, G100Q
notes: Human IgG4 Fc (prefix H4H)
B8: H4H1775P (antibody, human IgG4, V domains shown)
VH: B7 VH with S57G, Y59H, T61A
VL: B3 VL with N28D, N30S, T31S, L33V, V43A, L96R, G100Q
notes: Human IgG4 Fc (prefix H4H)
B9: H4H1779P (antibody, human IgG4, V domains shown)
VH: B7 VH with Y59H, T61A
VL: B3 VL with N28D, N30S, T31S, L33V, V43A, L96R, G100Q
notes: Human IgG4 Fc (prefix H4H)
B10: H4H1778P (antibody, human IgG4, V domains shown)
VH: B7 VH
VL: B3 VL with N28G, N30S, T31S, L33V, V43A, L96R, G100Q
notes: Human IgG4 Fc (prefix H4H)
B11: H4H1781P (antibody, human IgG4, V domains shown)
VH: B7 VH with E55D, S57N, Y59N, T61A, Q76K, T84N, A88V, Y106F
VL: B3 VL with N28G, N30S, T31S, V43A, K45N, S63G, T72S, S77G, L96R, G100Q
notes: Human IgG4 Fc (prefix H4H)
B12: H2M1709N (antibody, mouse IgG2, V domains shown)
VH: QVQLVQSGAEVKKPGASVKVSCKVSGYTLTELSIHWVRQAPGKGLEWMGGFDPEDGETIYAQKFQGRVNMTEDTSTDTAYMELSSLRSDDTTVYFCASLLPYFDYWGQGTLVTVSS
VL: B1 VL with N32S, D51G, D58G, T75S, Y88F, P96M, R97Y, V105L
notes: Human variable domains, mouse IgG2 Fc (prefix H2M)
B13: H4H1789Pa (antibody, V domains shown)
VH: EVQLLESGGGLVHPGGSLRLSCAASGFTFGGYAMSWVRQAPGKGLEWVSLISGSGGSTYYADSVKGRFTIFRDNSKNTLYLQMISLRAEDSAVYYCAKYSNYDYFDPWGQGTLVTVSS
VL: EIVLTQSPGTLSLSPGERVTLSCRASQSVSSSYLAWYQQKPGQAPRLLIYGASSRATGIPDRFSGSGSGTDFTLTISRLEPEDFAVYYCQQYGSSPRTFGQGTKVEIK
notes: Human IgG4 Fc (prefix H4H)
B14: H2M1811N (antibody, mouse IgG2, V domains shown)
VH: QVQLVQSGAEAREPGASVRVSCKASGYTFTDYFIHWVRQAPGQGLEWMGWINPNSGATNFAQKFQGRVTMTRDTSLITAYMDLSRLKSDDAAVFYCARDVDGSGWYLDFWGQGTLVTVSS
VL: EIVLTQSPATLSLSPGERATLSCRASQSVSIYLAWYQQKPGQAPRLLIYDASNRATGIPARFSGSGSGTDFTLTISRLEPEDFAVYYCQQRSDWPPSITFGQGTRLEIK
notes: as for B12
B15: H2M1710N (antibody, mouse IgG2, V domains shown)
VH: QVQLVQSGADMKKPGASVRVSCKASGYTFTDYFIHWVRQAPGQGPEWMGWINPDSGATNYAQQFQGRVTMTRDTSISATYMEMSRLRSDDTAVFYCARDKDGSGWYLDDWGQGTLVTVSS
VL: B14 VL with S30N, T56S, R77S, D93N
notes: as for B12
B16: H2M1763N (antibody, mouse IgG2, V domains shown)
VH: QIQLVQSGAEMKRPGTSVKVSCKASGYTFTSYGINWVRQAPGQGLEWMGWISAYNGDTNYAQKLQGRVTMTTDTSTTTAYMEVRSLRSDDTAVYYCARFLTGTKDYYYGMDVWGQGTTVTVSS
VL: DIQMTQSPSSLSASVGDRVTITCQASQDISNFLNWYQQKPGKAPDLLINDASILETGVPSRFSGSGSGTDFTLTINNLQPEDIATYYCQQYDNLPLTFGGGTKVEIK
notes: as for B12

Target: T1, Dimeric human CD48-mFc (human)
T1 chain: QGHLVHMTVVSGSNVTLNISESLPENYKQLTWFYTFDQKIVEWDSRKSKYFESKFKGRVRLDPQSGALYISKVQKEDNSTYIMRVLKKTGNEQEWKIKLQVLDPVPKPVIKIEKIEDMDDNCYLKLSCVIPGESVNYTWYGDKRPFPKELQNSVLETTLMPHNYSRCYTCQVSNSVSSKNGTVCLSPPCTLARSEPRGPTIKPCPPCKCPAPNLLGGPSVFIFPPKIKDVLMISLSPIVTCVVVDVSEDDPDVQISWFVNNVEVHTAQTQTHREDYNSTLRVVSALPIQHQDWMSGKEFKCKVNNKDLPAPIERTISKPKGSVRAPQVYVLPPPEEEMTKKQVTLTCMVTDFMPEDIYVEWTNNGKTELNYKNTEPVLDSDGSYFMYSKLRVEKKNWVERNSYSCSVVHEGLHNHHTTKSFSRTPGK
Experiment: SPR (Biacore T100), 25 C, antibody captured by anti-Fc, dimeric CD48-mFc in solution
Protocol: (§1) Measurements were conducted on a T100-2 BIACORE™ instrument (Biacore Life Sciences division of GE Healthcare, Piscataway, N.J.). Antibodies (either with mouse Fc [designated “H2M” or “H3M”] or human IgG4 Fc [designated “H4H”]) were captured through an anti-Fc chip surface, and CD48 was flowed over the surface either in a monomeric (soluble CD48 expressed with a myc-myc-hexa-histidine C-terminal tag [mmH]) or dimeric (soluble CD48 expressed with a C-terminal Fc fusion [mFc]) format.
(§2) The soluble CD48 was applied to the flow cell in separate injections at different concentrations, and kinetic association (kₐ) and dissociation (kd) rate constants were determined by fits to the kinetic binding data using Biacore software. Binding dissociation equilibrium constants and dissociation half-times were calculated from the kinetic rate constants as: KD=kd/kₐ; t_{1/2}=(ln 2/kd) (units: ka=M⁻¹*s⁻¹; kd=s⁻¹; KD=M; T½=min) (Tables 3-6).

| Binder | Kd | T½ | koff | kon |
| --- | --- | --- | --- | --- |
| B1 | 92.3 pM | 2.92 h | 6.59e-05 s⁻¹ | 714000 M⁻¹ s⁻¹ |
| B2 | 73.6 pM | 6.8 h | 2.83e-05 s⁻¹ | 385000 M⁻¹ s⁻¹ |
| B3 | 510 pM | 2.93 h | 6.57e-05 s⁻¹ | 129000 M⁻¹ s⁻¹ |
| B4 | 3.25 pM | 34.7 h | 5.54e-06 s⁻¹ | 1.71e+06 M⁻¹ s⁻¹ |
| B5 | 7.36 pM | 12.7 h | 1.52e-05 s⁻¹ | 2.07e+06 M⁻¹ s⁻¹ |
| B6 | 34.4 pM | 14.9 h | 1.29e-05 s⁻¹ | 376000 M⁻¹ s⁻¹ |
| B7 | 14.9 pM | 41.4 h | 4.65e-06 s⁻¹ | 311000 M⁻¹ s⁻¹ |
| B8 | 17.9 pM | 14.7 h | 1.31e-05 s⁻¹ | 734000 M⁻¹ s⁻¹ |
| B9 | 15.1 pM | 16.5 h | 1.17e-05 s⁻¹ | 774000 M⁻¹ s⁻¹ |
| B10 | 30.4 pM | 21.5 h | 8.95e-06 s⁻¹ | 294000 M⁻¹ s⁻¹ |
| B11 | 14.4 pM | 15.7 h | 1.23e-05 s⁻¹ | 854000 M⁻¹ s⁻¹ |
| B12 | 311 pM | 0.667 h | 0.000288 s⁻¹ | 928000 M⁻¹ s⁻¹ |
| B13 | 95.8 pM | 5.25 h | 3.66e-05 s⁻¹ | 382000 M⁻¹ s⁻¹ |
| B14 | 1600 pM | 0.833 h | 0.00023 s⁻¹ | 144000 M⁻¹ s⁻¹ |
| B15 | 841 pM | 2.05 h | 9.38e-05 s⁻¹ | 112000 M⁻¹ s⁻¹ |
| B16 | 256 pM | 0.383 h | 0.000499 s⁻¹ | 1.95e+06 M⁻¹ s⁻¹ |

Target: T2, Monomeric human CD48-mmH (human)
T2 construct: also called soluble CD48 expressed with a myc-myc-hexa-histidine C-terminal tag [mmH]
T2 chain: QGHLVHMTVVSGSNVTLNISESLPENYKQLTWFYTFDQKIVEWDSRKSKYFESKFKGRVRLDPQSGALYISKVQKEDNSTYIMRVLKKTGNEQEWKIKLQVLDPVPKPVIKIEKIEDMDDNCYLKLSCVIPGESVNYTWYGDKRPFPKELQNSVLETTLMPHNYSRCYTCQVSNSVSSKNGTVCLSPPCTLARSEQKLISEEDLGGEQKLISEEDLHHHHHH
Experiment: SPR (Biacore T100), 25 C, antibody captured by anti-Fc, monomeric CD48-mmH in solution
Protocol: as §1, §2

| Binder | Kd | T½ | koff | kon |
| --- | --- | --- | --- | --- |
| B1 | 4920 pM | 0.3 h | 0.000642 s⁻¹ | 131000 M⁻¹ s⁻¹ |
| B2 | 3570 pM | 0.317 h | 0.000601 s⁻¹ | 168000 M⁻¹ s⁻¹ |
| B3 | 2790 pM | 1.08 h | 0.000177 s⁻¹ | 63400 M⁻¹ s⁻¹ |
| B4 | 259 pM | 1.27 h | 0.000153 s⁻¹ | 589000 M⁻¹ s⁻¹ |
| B5 | 260 pM | 0.917 h | 0.000209 s⁻¹ | 805000 M⁻¹ s⁻¹ |
| B6 | 1380 pM | 1.1 h | 0.000176 s⁻¹ | 127000 M⁻¹ s⁻¹ |
| B7 | 454 pM | 4.08 h | 4.72e-05 s⁻¹ | 104000 M⁻¹ s⁻¹ |
| B8 | 340 pM | 3.92 h | 4.92e-05 s⁻¹ | 145000 M⁻¹ s⁻¹ |
| B9 | 246 pM | 4.93 h | 3.9e-05 s⁻¹ | 158000 M⁻¹ s⁻¹ |
| B10 | 476 pM | 4.1 h | 4.69e-05 s⁻¹ | 98600 M⁻¹ s⁻¹ |
| B11 | 194 pM | 5.85 h | 3.3e-05 s⁻¹ | 170000 M⁻¹ s⁻¹ |
| B12 | 19800 pM | 0.0333 h | 0.0058 s⁻¹ | 292000 M⁻¹ s⁻¹ |
| B13 | 3200 pM | 0.417 h | 0.000458 s⁻¹ | 143000 M⁻¹ s⁻¹ |
| B14 | 17000 pM | 0.233 h | 0.000849 s⁻¹ | 50000 M⁻¹ s⁻¹ |
| B15 | 39100 pM | 0.133 h | 0.00146 s⁻¹ | 37300 M⁻¹ s⁻¹ |
| B16 | 11800 pM | 0.0333 h | 0.00648 s⁻¹ | 548000 M⁻¹ s⁻¹ |
